Assay results as given in publication PMC5512577, “PDE6δ-mediated sorting of INPP5E into the cilium is determined by cargo-carrier affinity” (Nature Communications, 2016).
Like-named read-outs stand apart in the source and are kept apart here.

B1: Arl2^fl: full-length Arl2, mantGppNHp loaded (protein)
chain: MGLLTILKKMKQKERELRLLMLGLDNAGKTTILKKFNGEDVDTISPTLGFNIKTLEHRGFKLNIWDVGGQKSLRSYWRNYFESTDGLIWVVDSADRQRMQDCQRELQSLLVEERLAGATLLIFANKQDLPGALSCNAIQEALELDSIRSHHWRIQGCSAVTGEDLLPGIDWLLDDISSRVFTAD
modifications: left off: His tag, C-terminal, state not stated
notes: full-length Arl2, mantGppNHp loaded
B2: INPP5E(KS) mutant: GFP-tagged INPP5E S641K/V643S protein stably expressed in IMCD3 cells (protein)
chain: MPSKSACLRHTEAPGQLEGRMLQGQPPNTEKKLIPTPGFLPASDSQGSETNPMPPFSIPAKTSNQNPQTKANLITPQPPIRPKLERTLSLDDKGWRRRRFRGSQEDLTVQNGASPCRGSLQDSVAQSPAYSRPLPCLSTSLQEIPKSRRATGSEGGSPSLWSDCLSGMISTSLDLLHRDAASGGPPSRLASLHASHTPPAMDLSIASSSLRTANKVDPEHTDYKLRMQTRLVRAHSNLGPSRPRSPLAGDDHSIHSARSFSLLAPIRTKDIRSRSYLEGSLLASGALLGAEELARYFPDRNMALFVATWNMQGQKELPASLDEFLLPTEADYTQDLYVIGIQEGCSDRREWETRLQETLGPQYVLLSSAAHGVLYMSLFIRRDLIWFCSEVEYSTVTTRIVSQIKTKGALGVSFTFFGTSFLFITSHFTSGDGKVAERLLDYSRTIQALALPRNVPDTNPYRSSAGDVTTRFDEVFWFGDFNFRLSGGRVAVEAFLKQKPEVDVLALLQHDQLTREMKKGSIFRGFEEAEIHFLPSYKFDIGKDTYDSTSKQRTPSYTDRVLYKSRHKGDICPMKYSSCPGIKTSDHRPVYGLFQVKVRPGRDNIPLAAGKFDRELYLIGIKRRISKEIQRQEALKSQSSKASCTVS
modifications: left off: LAP tag (GFP-TEV-site-S-peptide), N-terminal, kept
notes: GFP-tagged INPP5E S641K/V643S protein stably expressed in IMCD3 cells
B3: INPP5E(WT): GFP (LAP)-tagged mouse INPP5E stably expressed in IMCD3 cells (protein)
chain: MPSKSACLRHTEAPGQLEGRMLQGQPPNTEKKLIPTPGFLPASDSQGSETNPMPPFSIPAKTSNQNPQTKANLITPQPPIRPKLERTLSLDDKGWRRRRFRGSQEDLTVQNGASPCRGSLQDSVAQSPAYSRPLPCLSTSLQEIPKSRRATGSEGGSPSLWSDCLSGMISTSLDLLHRDAASGGPPSRLASLHASHTPPAMDLSIASSSLRTANKVDPEHTDYKLRMQTRLVRAHSNLGPSRPRSPLAGDDHSIHSARSFSLLAPIRTKDIRSRSYLEGSLLASGALLGAEELARYFPDRNMALFVATWNMQGQKELPASLDEFLLPTEADYTQDLYVIGIQEGCSDRREWETRLQETLGPQYVLLSSAAHGVLYMSLFIRRDLIWFCSEVEYSTVTTRIVSQIKTKGALGVSFTFFGTSFLFITSHFTSGDGKVAERLLDYSRTIQALALPRNVPDTNPYRSSAGDVTTRFDEVFWFGDFNFRLSGGRVAVEAFLKQKPEVDVLALLQHDQLTREMKKGSIFRGFEEAEIHFLPSYKFDIGKDTYDSTSKQRTPSYTDRVLYKSRHKGDICPMKYSSCPGIKTSDHRPVYGLFQVKVRPGRDNIPLAAGKFDRELYLIGIKRRISKEIQRQEALKSQSSSAVC
modifications: left off: LAP tag (GFP-TEV-site-S-peptide), N-terminal, kept
notes: GFP (LAP)-tagged mouse INPP5E stably expressed in IMCD3 cells

Experiments:
PDE6δ = assay: Stopped-flow fluorescence polarization kinetics of mantGppNHp-loaded Arl proteins with PDE6δ; type: binding; conditions: for association rate constant kon with PDE6δ: 0.2 μM mantGppNHp-loaded Arl protein, increasing PDE6δ; for association rate constant kon with PDE6δ / dissociation rate constant koff from PDE6δ: 20 °C; for association rate constant kon with PDE6δ / dissociation rate constant koff from PDE6δ / Kd: n=4; for dissociation rate constant koff from PDE6δ: 2 μM PDE6δ with 0.2 μM mantGppNHp-loaded Arl protein, 200-fold excess unlabelled Arl protein; for Kd: calculated from kinetic constants, ± s.d., read-out: equilibrium dissociation constant Kd with PDE6δ (Kd=koff/kon)
Protocol: Previously we have shown that the N-terminal helix of Arl3 is important to release myristoylated cargo from a complex with the shuttle factor UNC119 (ref. [30]). To find out whether the N-terminus of Arl3 and/or Arl2 has a similar if any role in the interaction with PDE6δ, fluorescence polarization measurements using full-length Arl3 (Arl3^fl) or an N-terminal truncated form (Arl3^ΔN) were performed. […] To investigate the role of the N-terminal helix of Arl3 in the release mechanism, we measured association and dissociation rate constants to determine the affinity of PDE6δ towards Arl2 and Arl3 in both full-length and N-terminal truncated forms. Association rate constants between the four proteins Arl3^fl, Arl3^ΔN, Arl2^fl and Arl2^ΔN are rather similar although association is almost twice as fast for full-length Arl3 as compared with Arl2 (Fig. 3a,b). […] The Kd values for Arl2^fl and Arl3^fl differ from previously determined values, likely because of the different techniques used.
Figure 3 Contribution of the N-terminal helix of Arl3 to the binding affinity with PDE6δ. (a) Stopped-flow fluorescence polarization kinetic measurements of the association of 0.2 μM mantGppNHp loaded Arl proteins with increasing concentrations of PDE6δ. The observed pseudo-first order rate constants (kobs) are plotted against PDE6δ concentration. (b) Bar charts of the association rate constants (kon) determined in a. (c,d) Stopped-flow fluorescence polarization kinetic experiments where complexes of 2 μM PDE6δ with 0.2 μM of full-length (Arl^fl) or N-terminally deleted (Arl^ΔN) mantGppNHp loaded Arl proteins as indicated were mixed with 200-fold excess of unlabelled Arl proteins to determine koff. (e) Bar charts of the dissociation rate constants (koff) from experiments in c,d. (f) Bar charts of the equilibrium dissociation constants (Kd) of complexes between PDE6δ and Arl proteins as determined from the kinetic constants in c,e. Error bars indicate s.d., n=4. TEXT PRINTED IN THE PICTURE: (b) Arl3^fl: kon (μM^-1s^-1): 5.97 | (b) Arl3^ΔN: kon (μM^-1s^-1): 4.25 | (b) Arl2^fl: kon (μM^-1s^-1): 2.25 | (b) Arl2^ΔN: kon (μM^-1s^-1): 3.09 | (e) Arl3^fl: koff (s^-1): 0.035 | (e) Arl3^ΔN: koff (s^-1): 0.92 | (e) Arl2^fl: koff (s^-1): 0.33 | (e) Arl2^ΔN: koff (s^-1): 0.98 | (f) Arl3^fl: kd (nM): 5.84 | (f) Arl3^ΔN: kd (nM): 217 | (f) Arl2^fl: kd (nM): 149 | (f) Arl2^ΔN: kd (nM): 319
All fluorescence polarization measurements were performed at 20 °C in a buffer containing 25 mM Tris-HCl (pH 7.5), 50 mM NaCl and 3 mM DTE. For the titration measurement, data were recorded with Fluoromax-4 spectrophotometer (HORIBA Jobin Yvon, Munich, Germany) with excitation and emission wavelengths at 530 and 580 nm for TAMRA-labelled INPP5E peptide and at 495 and 520 nm for fluorescein-labelled Rheb peptide. The kinetic measurements were monitored by a stopped-flow apparatus (Applied Photophysics) in the polarization mode using an excitation wavelength of 366 nm and filter with 420 nm cutoff for mantGppNHp bound Arl protein, excitation wavelength of 495 nm and filter with 520 nm cutoff for fluorescein-labelled Rheb peptide and excitation wavelength of 530 nm and filter with 570 nm cutoff for TAMRA-labelled INPP5E peptide. Data analysis was done with GraFit 5.0 program (Erithracus Software). Concentrations used for each experiment are indicated in the corresponding figure legend.

GST-PDE6δ = GST-PDE6δ pull-down and release by Arl2/Arl3 from IMCD3 lysates; type: binding; conditions: 20 μM GST-PDE6δ on GSH-beads, 20 μM Arl2 or Arl3, 1 h 4 °C, anti-GFP immunoblot
Protocol: Figure 5 INPP5E ciliary enrichment is dependent on high affinity to PDE6δ. […] White bar indicates 5 μm. (b) Bar chart showing ratio of GFP intensity in cilia to the total GFP intensity, indicating the enrichment of GFP-tagged protein in cilia. […] Error bars indicate s.d., n≥35 (P<0.05; Student’s t-test). […] Formed complexes in the pulldown experiment were incubated with Arl2 or Arl3 as indicated. The amount of GFP-tagged interacting proteins bound to GST-PDE6δ was detected by immunoblotting with an antibody against GFP.
IMCD3 cells stably expressing GFP-INPP5E(WT) or GFP-INPP5E(KS) were lysed in lysis buffer containing 75 mM Hepes pH 7.5, 150 mM KCl, 1.5 mM EGTA, 1.5 mM MgCl2, 15% glycerol, 0.2% NP-40 and one protease inhibitor cocktail tablet (Roche). Cell lysates were cleared and supernatants were incubated for 1 h at 4 °C with 100 μl GSH-beads conjugated with 20 μM GST-PDE6δ. For the release assay, 20 μM of either Arl2 or Arl3 were added to the previous mixture and incubated for further 1 h at 4 °C. After 5 times washing with the lysis buffer, the complexes were analysed by western blotting using anti-GFP antibody (1:500; Santa Cruz Biotechnology sc-9996) and anti GST (1:5,000; home source). Full scans of western blots are provided in Supplementary Fig. 6.

Row | Molecule | difference in koff / residence time with PDE6δ, full-length versus N-terminally deleted form (PDE6δ) | association rate constant kon with PDE6δ (PDE6δ) [M⁻¹ s⁻¹] | association rate constant kon with PDE6δ (PDE6δ; listed as Arl2^ΔN) [M⁻¹ s⁻¹] | dissociation rate constant koff from PDE6δ (PDE6δ) [s⁻¹] | dissociation rate constant koff from PDE6δ (PDE6δ; listed as Arl2^ΔN) [s⁻¹] | Kd (PDE6δ; listed as Arl2^ΔN) [nM] | Kd (PDE6δ) [nM] | release from GST-PDE6δ by Arl2·GppNHp / Arl3·GppNHp (GST-PDE6δ)
1 | B1 | threefold | 2.25e+06 | 3.09e+06 | 0.33 | 0.98 | 316 ± 6.3 | 149 ± 19 | –
2 | B2 | – | – | – | – | – | – | – | can indeed be released by both Arl2·GppNHp and Arl3·GppNHp
3 | B3 | – | – | – | – | – | – | – | specifically released only by Arl3·GppNHp
